In patent publication US20150344570A1 (published 2015):

T1: FcγRIIa R (FcγRIIa, allotype with Arg at position 131), extracellular domain with C-terminal His tag (human, UniProt P12318 34-217)
T1 construct: extracellular domain; also called FcγRIIa R type; 2aR
T1 sequence (looked up): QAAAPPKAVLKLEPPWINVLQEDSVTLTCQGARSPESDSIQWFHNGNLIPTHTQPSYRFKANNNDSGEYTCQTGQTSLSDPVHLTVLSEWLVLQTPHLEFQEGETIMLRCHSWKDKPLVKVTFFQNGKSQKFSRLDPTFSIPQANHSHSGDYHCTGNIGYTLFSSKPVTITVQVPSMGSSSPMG

B1: GpH7-B3 variant S239_08L/GpL16-k0 (antibody, human IgG1, kappa)
heavy: not shown
light: DIVMTQSPLSLPVTPGEPASISCQASESLVHSNRNTYLHWYLQKPGQSPQLLIYKVSNRFSGVPDRFSGSGSGTDFTLKISRVEAEDVGVYYCSQNTHVPPTFGQGTKVEIERTVAAPSVFIFPPSDEQLKSGTASVVCLLNNFYPREAKVQWKVDNALQSGNSQESVTEQDSKDSTYSLSSTLTLSKADYEKHKVYACEVTHQGLSSPVTKSFNRGEC
notes: also called Ho Ab
B2: GpH7-B3 variant Y296_10E/GpL16-k0 (antibody, human IgG1, kappa)
heavy: not shown
light: B1 light
notes: also called Ho Ab
B3: GpH7-B3 variant S337_08L/GpL16-k0 (antibody, human IgG1, kappa)
heavy: not shown
light: B1 light
notes: also called Ho Ab
B4: GpH7-B3 variant T335_05P/GpL16-k0 (antibody, human IgG1, kappa)
heavy: not shown
light: B1 light
notes: also called Ho Ab
B5: GpH7-B3 variant S337_10E/GpL16-k0 (antibody, human IgG1, kappa)
heavy: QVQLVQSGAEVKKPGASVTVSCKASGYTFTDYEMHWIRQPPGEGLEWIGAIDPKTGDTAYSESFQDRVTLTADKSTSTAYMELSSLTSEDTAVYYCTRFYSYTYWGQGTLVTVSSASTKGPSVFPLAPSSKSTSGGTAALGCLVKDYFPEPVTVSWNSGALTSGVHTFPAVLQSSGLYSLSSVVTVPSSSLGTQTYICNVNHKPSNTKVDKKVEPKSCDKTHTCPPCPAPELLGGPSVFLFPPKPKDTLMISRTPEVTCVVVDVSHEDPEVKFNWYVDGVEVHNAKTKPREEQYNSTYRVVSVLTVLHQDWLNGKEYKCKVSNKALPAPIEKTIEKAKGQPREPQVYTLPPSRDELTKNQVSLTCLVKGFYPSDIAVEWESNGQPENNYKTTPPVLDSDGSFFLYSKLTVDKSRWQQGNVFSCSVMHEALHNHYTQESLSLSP
light: B1 light
notes: also called Ho Ab
B6: GpH7-B3 variant S337_03V/GpL16-k0 (antibody, human IgG1, kappa)
heavy: not shown
light: B1 light
notes: also called Ho Ab
B7: GpH7-B3 variant Y296_14T/GpL16-k0 (antibody, human IgG1, kappa)
heavy: not shown
light: B1 light
notes: also called Ho Ab
B8: GpH7-B3 variant T335_10E/GpL16-k0 (antibody, human IgG1, kappa)
heavy: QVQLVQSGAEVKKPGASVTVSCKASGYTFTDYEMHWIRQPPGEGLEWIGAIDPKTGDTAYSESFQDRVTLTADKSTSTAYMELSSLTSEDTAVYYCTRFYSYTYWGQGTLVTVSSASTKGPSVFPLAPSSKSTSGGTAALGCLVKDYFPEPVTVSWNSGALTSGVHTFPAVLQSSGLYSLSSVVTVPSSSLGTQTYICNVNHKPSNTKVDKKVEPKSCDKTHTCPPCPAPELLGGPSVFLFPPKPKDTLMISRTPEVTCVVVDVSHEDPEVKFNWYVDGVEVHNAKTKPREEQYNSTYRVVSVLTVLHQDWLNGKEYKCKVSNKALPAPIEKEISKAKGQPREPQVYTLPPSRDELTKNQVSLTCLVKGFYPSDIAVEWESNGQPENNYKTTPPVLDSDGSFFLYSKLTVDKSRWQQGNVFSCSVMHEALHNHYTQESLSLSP
light: B1 light
notes: also called Ho Ab
B9: GpH7-B3 variant Y300_18N/GpL16-k0 (antibody, human IgG1, kappa)
heavy: not shown
light: B1 light
notes: also called Ho Ab
B10: GpH7-B3 variant T335_18N/GpL16-k0 (antibody, human IgG1, kappa)
heavy: not shown
light: B1 light
notes: also called Ho Ab
B11: GpH7-B3 variant S337_07I/GpL16-k0 (antibody, human IgG1, kappa)
heavy: not shown
light: B1 light
notes: also called Ho Ab
B12: GpH7-B3 variant S337_04F/GpL16-k0 (antibody, human IgG1, kappa)
heavy: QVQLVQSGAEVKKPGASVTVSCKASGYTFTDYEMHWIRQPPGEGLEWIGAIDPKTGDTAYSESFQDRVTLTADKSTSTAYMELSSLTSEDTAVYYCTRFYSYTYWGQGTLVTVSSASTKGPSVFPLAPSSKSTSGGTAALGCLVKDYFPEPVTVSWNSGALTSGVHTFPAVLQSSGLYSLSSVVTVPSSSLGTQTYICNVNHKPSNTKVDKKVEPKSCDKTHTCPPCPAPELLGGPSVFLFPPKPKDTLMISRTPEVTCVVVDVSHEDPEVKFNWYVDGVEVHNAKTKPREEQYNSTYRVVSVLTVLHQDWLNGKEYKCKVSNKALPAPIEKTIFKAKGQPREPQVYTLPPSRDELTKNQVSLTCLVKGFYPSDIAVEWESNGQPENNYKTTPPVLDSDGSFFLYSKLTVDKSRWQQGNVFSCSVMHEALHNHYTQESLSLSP
light: B1 light
notes: also called Ho Ab
B13: GpH7-B3 variant T335_02A/GpL16-k0 (antibody, human IgG1, kappa)
heavy: not shown
light: B1 light
notes: also called Ho Ab
B14: GpH7-B3 variant T335_19Q/GpL16-k0 (antibody, human IgG1, kappa)
heavy: not shown
light: B1 light
notes: also called Ho Ab
B15: GpH7-B3 variant S267_03V/GpL16-k0 (antibody, human IgG1, kappa)
heavy: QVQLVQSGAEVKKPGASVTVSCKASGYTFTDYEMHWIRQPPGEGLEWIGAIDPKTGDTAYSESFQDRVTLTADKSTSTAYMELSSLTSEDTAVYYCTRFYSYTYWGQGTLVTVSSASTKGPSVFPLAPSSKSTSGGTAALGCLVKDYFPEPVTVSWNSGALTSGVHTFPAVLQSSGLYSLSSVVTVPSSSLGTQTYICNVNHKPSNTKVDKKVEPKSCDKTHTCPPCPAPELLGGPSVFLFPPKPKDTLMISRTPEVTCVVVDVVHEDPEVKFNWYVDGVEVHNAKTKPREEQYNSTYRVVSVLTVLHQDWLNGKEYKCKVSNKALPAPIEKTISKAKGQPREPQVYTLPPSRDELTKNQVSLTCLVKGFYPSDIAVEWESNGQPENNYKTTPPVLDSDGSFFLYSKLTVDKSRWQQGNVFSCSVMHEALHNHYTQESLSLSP
light: B1 light
notes: also called Ho Ab
B16: GpH7-B3 variant Y296_13S/GpL16-k0 (antibody, human IgG1, kappa)
heavy: not shown
light: B1 light
notes: also called Ho Ab
B17: GpH7-B3 variant T335_13S/GpL16-k0 (antibody, human IgG1, kappa)
heavy: not shown
light: B1 light
notes: also called Ho Ab
B18: GpH7-B3 variant S324_06M/GpL16-k0 (antibody, human IgG1, kappa)
heavy: not shown
light: B1 light
notes: also called Ho Ab
B19: GpH7-B3 variant S337_11K/GpL16-k0 (antibody, human IgG1, kappa)
heavy: not shown
light: B1 light
notes: also called Ho Ab
B20: GpH7-B3 variant S337_18N/GpL16-k0 (antibody, human IgG1, kappa)
heavy: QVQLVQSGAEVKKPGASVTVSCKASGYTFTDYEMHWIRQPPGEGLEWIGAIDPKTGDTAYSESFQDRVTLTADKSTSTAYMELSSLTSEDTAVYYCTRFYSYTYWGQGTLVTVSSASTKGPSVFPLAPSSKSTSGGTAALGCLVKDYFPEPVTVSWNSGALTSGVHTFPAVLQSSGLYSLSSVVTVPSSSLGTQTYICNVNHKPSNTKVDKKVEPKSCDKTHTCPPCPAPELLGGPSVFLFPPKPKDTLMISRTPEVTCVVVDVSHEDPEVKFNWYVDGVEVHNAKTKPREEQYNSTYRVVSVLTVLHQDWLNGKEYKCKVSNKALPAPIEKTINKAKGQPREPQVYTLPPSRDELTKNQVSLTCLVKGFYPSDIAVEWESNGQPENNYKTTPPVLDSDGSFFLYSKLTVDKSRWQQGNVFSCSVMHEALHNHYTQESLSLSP
light: B1 light
notes: also called Ho Ab
B21: GpH7-B3 variant S337_15Y/GpL16-k0 (antibody, human IgG1, kappa)
heavy: not shown
light: B1 light
notes: also called Ho Ab
B22: GpH7-B3 variant Y296_09D/GpL16-k0 (antibody, human IgG1, kappa)
heavy: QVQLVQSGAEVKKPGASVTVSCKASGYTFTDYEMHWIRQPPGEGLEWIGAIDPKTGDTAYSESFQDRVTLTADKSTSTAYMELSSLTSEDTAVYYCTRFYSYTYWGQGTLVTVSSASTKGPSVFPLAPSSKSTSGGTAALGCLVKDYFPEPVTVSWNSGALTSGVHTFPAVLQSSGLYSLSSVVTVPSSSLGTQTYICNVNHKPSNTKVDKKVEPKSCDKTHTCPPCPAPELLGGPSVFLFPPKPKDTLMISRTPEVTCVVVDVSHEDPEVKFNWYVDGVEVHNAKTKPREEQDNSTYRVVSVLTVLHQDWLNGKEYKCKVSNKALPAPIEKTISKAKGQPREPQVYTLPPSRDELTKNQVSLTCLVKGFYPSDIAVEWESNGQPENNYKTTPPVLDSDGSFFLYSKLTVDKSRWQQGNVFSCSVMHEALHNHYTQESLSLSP
light: B1 light
notes: also called Ho Ab
B23: GpH7-B3 variant S298_06M/GpL16-k0 (antibody, human IgG1, kappa)
heavy: not shown
light: B1 light
notes: also called Ho Ab
B24: GpH7-B3 variant V266_06M/GpL16-k0 (antibody, human IgG1, kappa)
heavy: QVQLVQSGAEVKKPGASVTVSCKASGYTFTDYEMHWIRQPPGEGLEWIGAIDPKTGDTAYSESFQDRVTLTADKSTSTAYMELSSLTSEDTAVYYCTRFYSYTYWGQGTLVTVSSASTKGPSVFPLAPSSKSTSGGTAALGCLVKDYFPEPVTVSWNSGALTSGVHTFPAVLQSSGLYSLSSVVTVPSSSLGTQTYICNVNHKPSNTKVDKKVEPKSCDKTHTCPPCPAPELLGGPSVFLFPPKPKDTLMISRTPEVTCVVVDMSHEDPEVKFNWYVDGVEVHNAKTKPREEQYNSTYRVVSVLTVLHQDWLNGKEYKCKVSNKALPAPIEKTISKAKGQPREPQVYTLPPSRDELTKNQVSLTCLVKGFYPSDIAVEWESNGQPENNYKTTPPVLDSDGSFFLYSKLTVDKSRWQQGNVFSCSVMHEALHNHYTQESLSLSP
light: B1 light
notes: also called Ho Ab
B25: GpH7-B3 variant Y296_19Q/GpL16-k0 (antibody, human IgG1, kappa)
heavy: not shown
light: B1 light
notes: also called Ho Ab
B26: GpH7-B3 variant S337_09D/GpL16-k0 (antibody, human IgG1, kappa)
heavy: not shown
light: B1 light
notes: also called Ho Ab
B27: GpH7-B3 variant S337_06M/GpL16-k0 (antibody, human IgG1, kappa)
heavy: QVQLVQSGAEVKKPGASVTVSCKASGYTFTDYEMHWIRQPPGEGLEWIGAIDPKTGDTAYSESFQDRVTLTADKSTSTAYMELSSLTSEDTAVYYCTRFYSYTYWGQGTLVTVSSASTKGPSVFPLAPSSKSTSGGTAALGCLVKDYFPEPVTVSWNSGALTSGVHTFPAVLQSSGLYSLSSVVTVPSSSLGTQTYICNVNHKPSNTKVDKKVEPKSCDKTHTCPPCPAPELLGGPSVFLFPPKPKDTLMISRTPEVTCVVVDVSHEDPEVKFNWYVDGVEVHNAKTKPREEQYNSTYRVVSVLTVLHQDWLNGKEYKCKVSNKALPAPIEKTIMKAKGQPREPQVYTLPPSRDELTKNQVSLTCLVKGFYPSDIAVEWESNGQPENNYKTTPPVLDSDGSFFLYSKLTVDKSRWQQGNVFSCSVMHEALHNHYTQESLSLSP
light: B1 light
notes: also called Ho Ab
B28: GpH7-B3 variant Y296_16H/GpL16-k0 (antibody, human IgG1, kappa)
heavy: not shown
light: B1 light
notes: also called Ho Ab
B29: GpH7-B3 variant T335_20W/GpL16-k0 (antibody, human IgG1, kappa)
heavy: not shown
light: B1 light
notes: also called Ho Ab
B30: GpH7-B3 variant Y296_20W/GpL16-k0 (antibody, human IgG1, kappa)
heavy: not shown
light: B1 light
notes: also called Ho Ab
B31: GpH7-B3 variant T335_07I/GpL16-k0 (antibody, human IgG1, kappa)
heavy: not shown
light: B1 light
notes: also called Ho Ab
B32: GpH7-B3 variant S267_06M/GpL16-k0 (antibody, human IgG1, kappa)
heavy: not shown
light: B1 light
notes: also called Ho Ab
B33: GpH7-B3 variant S267_09D/GpL16-k0 (antibody, human IgG1, kappa)
heavy: not shown
light: B1 light
notes: also called Ho Ab
B34: GpH7-B3 variant S239_14T/GpL16-k0 (antibody, human IgG1, kappa)
heavy: not shown
light: B1 light
notes: also called Ho Ab
B35: GpH7-B3 variant S239_10E/GpL16-k0 (antibody, human IgG1, kappa)
heavy: not shown
light: B1 light
notes: also called Ho Ab
B36: GpH7-B3 variant Y296_18N/GpL16-k0 (antibody, human IgG1, kappa)
heavy: not shown
light: B1 light
notes: also called Ho Ab
B37: GpH7-B3 variant S337_16H/GpL16-k0 (antibody, human IgG1, kappa)
heavy: not shown
light: B1 light
notes: also called Ho Ab
B38: GpH7-B3 variant T335_16H/GpL16-k0 (antibody, human IgG1, kappa)
heavy: not shown
light: B1 light
notes: also called Ho Ab
B39: GpH7-B3 variant Y296_04F/GpL16-k0 (antibody, human IgG1, kappa)
heavy: not shown
light: B1 light
notes: also called Ho Ab
B40: GpH7-B3 variant Y296_06M/GpL16-k0 (antibody, human IgG1, kappa)
heavy: not shown
light: B1 light
notes: also called Ho Ab
B41: GpH7-B3 variant S324_04F/GpL16-k0 (antibody, human IgG1, kappa)
heavy: not shown
light: B1 light
notes: also called Ho Ab
B42: GpH7-B3 variant T335_15Y/GpL16-k0 (antibody, human IgG1, kappa)
heavy: not shown
light: B1 light
notes: also called Ho Ab
B43: GpH7-B3 variant Y296_07I/GpL16-k0 (antibody, human IgG1, kappa)
heavy: not shown
light: B1 light
notes: also called Ho Ab
B44: GpH7-B3 variant S267_19Q/GpL16-k0 (antibody, human IgG1, kappa)
heavy: not shown
light: B1 light
notes: also called Ho Ab
B45: GpH7-B3 variant S337_20W/GpL16-k0 (antibody, human IgG1, kappa)
heavy: not shown
light: B1 light
notes: also called Ho Ab
B46: GpH7-B3 variant S298_08L/GpL16-k0 (antibody, human IgG1, kappa)
heavy: not shown
light: B1 light
notes: also called Ho Ab
B47: GpH7-B3 variant T335_01G/GpL16-k0 (antibody, human IgG1, kappa)
heavy: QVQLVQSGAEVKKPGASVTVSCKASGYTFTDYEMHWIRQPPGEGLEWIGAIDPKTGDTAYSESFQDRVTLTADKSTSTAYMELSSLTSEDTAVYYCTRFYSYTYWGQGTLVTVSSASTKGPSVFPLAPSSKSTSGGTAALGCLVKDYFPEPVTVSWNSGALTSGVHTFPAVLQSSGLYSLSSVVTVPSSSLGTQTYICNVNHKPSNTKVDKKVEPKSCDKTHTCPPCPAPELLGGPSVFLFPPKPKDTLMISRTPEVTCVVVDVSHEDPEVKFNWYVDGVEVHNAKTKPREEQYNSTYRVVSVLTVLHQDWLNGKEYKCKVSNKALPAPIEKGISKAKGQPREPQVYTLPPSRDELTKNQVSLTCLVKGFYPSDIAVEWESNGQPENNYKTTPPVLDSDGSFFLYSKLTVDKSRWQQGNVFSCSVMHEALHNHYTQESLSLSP
light: B1 light
notes: also called Ho Ab
B48: GpH7-B3 variant T335_12R/GpL16-k0 (antibody, human IgG1, kappa)
heavy: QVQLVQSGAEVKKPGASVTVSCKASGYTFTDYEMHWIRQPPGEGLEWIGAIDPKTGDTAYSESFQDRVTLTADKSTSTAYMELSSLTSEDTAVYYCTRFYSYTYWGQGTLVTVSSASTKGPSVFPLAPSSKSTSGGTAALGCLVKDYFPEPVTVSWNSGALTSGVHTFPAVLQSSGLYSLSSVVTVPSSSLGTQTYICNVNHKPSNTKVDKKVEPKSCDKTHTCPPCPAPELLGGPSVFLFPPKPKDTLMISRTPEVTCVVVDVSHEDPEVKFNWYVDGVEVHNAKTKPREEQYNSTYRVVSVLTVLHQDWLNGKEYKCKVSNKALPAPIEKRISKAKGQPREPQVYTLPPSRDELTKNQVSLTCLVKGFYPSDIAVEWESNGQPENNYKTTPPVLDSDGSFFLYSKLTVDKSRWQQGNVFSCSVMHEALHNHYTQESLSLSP
light: B1 light
notes: also called Ho Ab
B49: GpH7-B3 variant S239_18N/GpL16-k0 (antibody, human IgG1, kappa)
heavy: not shown
light: B1 light
notes: also called Ho Ab
B50: GpH7-B3 variant S337_19Q/GpL16-k0 (antibody, human IgG1, kappa)
heavy: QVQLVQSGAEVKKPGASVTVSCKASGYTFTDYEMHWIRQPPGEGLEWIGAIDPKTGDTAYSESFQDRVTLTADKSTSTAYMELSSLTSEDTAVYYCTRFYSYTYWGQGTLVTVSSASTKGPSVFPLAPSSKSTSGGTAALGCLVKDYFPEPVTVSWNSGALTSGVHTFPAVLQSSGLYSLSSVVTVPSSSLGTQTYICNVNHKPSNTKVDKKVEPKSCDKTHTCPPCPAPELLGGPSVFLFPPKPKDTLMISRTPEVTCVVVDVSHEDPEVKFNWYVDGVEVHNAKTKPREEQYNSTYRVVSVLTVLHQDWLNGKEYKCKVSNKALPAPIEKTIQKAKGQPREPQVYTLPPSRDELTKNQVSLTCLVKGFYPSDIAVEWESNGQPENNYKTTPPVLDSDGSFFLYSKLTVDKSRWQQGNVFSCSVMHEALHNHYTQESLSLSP
light: B1 light
notes: also called Ho Ab
B51: GpH7-B3 variant S337_12R/GpL16-k0 (antibody, human IgG1, kappa)
heavy: not shown
light: B1 light
notes: also called Ho Ab

Biological target: T1, FcγRIIa R (FcγRIIa, allotype with Arg …)
Experiment: SPR (Biacore), antibody captured on antigen peptide chip, FcγR as analyte; relative binding
Experimental: Analysis of interaction between objective antibody and the FcγR was carried out using Biacore T100 (GE Healthcare). HBS-EP+ (GE Healthcare) was used as the running buffer, and the measurement temperature was set to 25° C. Chips produced by immobilizing the antigen peptide by the amine coupling method to a Series S Sencor Chip CM5 (GE Healthcare), or alternatively, chips produced by allowing preliminarily biotinylated antigen peptides to interact with and immobilize onto a Series S Sensor Chip SA (certified) (GE Healthcare) were used. Antibodies of interest were captured onto an antigen peptide-immobilized chip, and allowed to interact to each FcγR diluted with running buffer. To regenerate and repeatedly use the chip, the antibodies captured on the chip were washed off by reacting 10 mM glycine-HCl, pH 1.5.

| Binder | Ho/Con_2aR |
| --- | --- |
| B1 | 106 % of GpH7-B3/GpL16-k0 (=100) |
| B2 | 90.2 % of GpH7-B3/GpL16-k0 (=100) |
| B3 | 99.4 % of GpH7-B3/GpL16-k0 (=100) |
| B4 | 104 % of GpH7-B3/GpL16-k0 (=100) |
| B5 | 110 % of GpH7-B3/GpL16-k0 (=100) |
| B6 | 102 % of GpH7-B3/GpL16-k0 (=100) |
| B7 | 90.3 % of GpH7-B3/GpL16-k0 (=100) |
| B8 | 109 % of GpH7-B3/GpL16-k0 (=100) |
| B9 | 87.6 % of GpH7-B3/GpL16-k0 (=100) |
| B10 | 100 % of GpH7-B3/GpL16-k0 (=100) |
| B11 | 103 % of GpH7-B3/GpL16-k0 (=100) |
| B12 | 98.3 % of GpH7-B3/GpL16-k0 (=100) |
| B13 | 102 % of GpH7-B3/GpL16-k0 (=100) |
| B14 | 102 % of GpH7-B3/GpL16-k0 (=100) |
| B15 | 115 % of GpH7-B3/GpL16-k0 (=100) |
| B16 | 88.1 % of GpH7-B3/GpL16-k0 (=100) |
| B17 | 102 % of GpH7-B3/GpL16-k0 (=100) |
| B18 | 118 % of GpH7-B3/GpL16-k0 (=100) |
| B19 | 94.6 % of GpH7-B3/GpL16-k0 (=100) |
| B20 | 103 % of GpH7-B3/GpL16-k0 (=100) |
| B21 | 100 % of GpH7-B3/GpL16-k0 (=100) |
| B22 | 94.5 % of GpH7-B3/GpL16-k0 (=100) |
| B23 | 102 % of GpH7-B3/GpL16-k0 (=100) |
| B24 | 146 % of GpH7-B3/GpL16-k0 (=100) |
| B25 | 88.9 % of GpH7-B3/GpL16-k0 (=100) |
| B26 | 114 % of GpH7-B3/GpL16-k0 (=100) |

| Binder | Ho/Con_2aR |
| --- | --- |
| B27 | 101 % of GpH7-B3/GpL16-k0 (=100) |
| B28 | 89.5 % of GpH7-B3/GpL16-k0 (=100) |
| B29 | 101 % of GpH7-B3/GpL16-k0 (=100) |
| B30 | 107 % of GpH7-B3/GpL16-k0 (=100) |
| B31 | 107 % of GpH7-B3/GpL16-k0 (=100) |
| B32 | 102 % of GpH7-B3/GpL16-k0 (=100) |
| B33 | 167 % of GpH7-B3/GpL16-k0 (=100) |
| B34 | 92.3 % of GpH7-B3/GpL16-k0 (=100) |
| B35 | 122 % of GpH7-B3/GpL16-k0 (=100) |
| B36 | 93.7 % of GpH7-B3/GpL16-k0 (=100) |
| B37 | 107 % of GpH7-B3/GpL16-k0 (=100) |
| B38 | 102 % of GpH7-B3/GpL16-k0 (=100) |
| B39 | 106 % of GpH7-B3/GpL16-k0 (=100) |
| B40 | 84 % of GpH7-B3/GpL16-k0 (=100) |
| B41 | 101 % of GpH7-B3/GpL16-k0 (=100) |
| B42 | 107 % of GpH7-B3/GpL16-k0 (=100) |
| B43 | 83.1 % of GpH7-B3/GpL16-k0 (=100) |
| B44 | 110 % of GpH7-B3/GpL16-k0 (=100) |
| B45 | 105 % of GpH7-B3/GpL16-k0 (=100) |
| B46 | 101 % of GpH7-B3/GpL16-k0 (=100) |
| B47 | 97.7 % of GpH7-B3/GpL16-k0 (=100) |
| B48 | 94 % of GpH7-B3/GpL16-k0 (=100) |
| B49 | 103 % of GpH7-B3/GpL16-k0 (=100) |
| B50 | 102 % of GpH7-B3/GpL16-k0 (=100) |
| B51 | 100 % of GpH7-B3/GpL16-k0 (=100) |
